What is called Kd is the constant that tells how readily two partners part at equilibrium. Read a high Kd as lower affinity. As a reminder, the koff is a measure of how fast the partners let go of each other.

Here are results for two molecules from US20240425846A1.

For experiment [1], the target named is biotinylated human Her2 (HE2-H822R, Acro Biosystems) (human) (UniProt P04626). Description: BLI (Octet), Her2-biotin on streptavidin tip, Fab at 20 nM, 1:1 fit; the filing doubts the fit because the response was low. (BLI is a label-free optical method that tracks binding on a fibre tip over time.)
For experiment [2] the target is unchanged. Description: flow cell kinetic dissociation, ribosome-displayed scFv, buffer wash after Her2-biotin/AF532-streptavidin.
Experiment [3] shares this target. The experiment can be described thus: deep screening, equilibrium fit (column DS KD (M)).
Experiment [4] has the same target. Description: deep screening, equilibrium fit.
Experiment [5] has the same target. Description: flow cell equilibrium binding, ribosome-displayed scFv, 0.03-100 nM Her2-biotin and 100 nM AF532-streptavidin.
For experiment [6] the target is unchanged. Description: deep screening ('HER2affmat'), ribosome-displayed scFv on flow cell, 5 minutes of wash after 100 nM Her2-biotin:AF532-streptavidin.
For experiment [7] the target is unchanged. The experiment can be described thus: deep screening, equilibrium fit (column DS KD (M)). This is another data set of the same source.
Experiment [8] shares this target. The experiment can be described thus: deep screening, biphasic dissociation fit, phase 2.
The target is the same in experiment [9]. Description: deep screening, biphasic dissociation fit, phase 1.

B1: G98A Fab (Fab)
VH: MQVQLVQSGAEVKKPGESLKISCKGSGYSFTSYWIAWVRQMPGKGLEYMGLIYPGDSDTKYSPSFQGQVTISVDKSVSTAYLQWSSLKPSDSAVYFCARHDVAYCSSSNCAKWPEYFQHWGQGTLVTVSSGGGGSGGGGSGGGGSQSVLTQPPSVSAAPGQKVTISCSGSSSNIGNNYVSWYQQLPGTAPKLLIYGHTNRPAGVPDRFSGSKSGTSASLAISGFRSEDEADYYCASWDYTLSGWVFGGGTKLTVLG
VL: MQVQLVQSGAEVKKPGESLKISCKGSGYSFTSYWIAWVRQMPGKGLEYMGLIYPGDSDTKYSPSFQGQVTISVDKSVSTAYLQWSSLKPSDSAVYFCARHDVAYCSSSNCAKWPEYFQHWGQGTLVTVSSGGGGSGGGGSGGGGSQSVLTQPPSVSAAPGQKVTISCSGSSSNIGNNYVSWYQQLPGTAPKLLIYGHTNRPAGVPDRFSGSKSGTSASLAISGFRSEDEADYYCASWDYTLSGWVFGGGTKLTVLG
In the case of B1, in [1], the Kd is 46.9 nM.

B2: Her2_G98A scFv (scFv)
scFv: MQVQLVQSGAEVKKPGESLKISCKGSGYSFTSYWIAWVRQMPGKGLEYMGLIYPGDSDTKYSPSFQGQVTISVDKSVSTAYLQWSSLKPSDSAVYFCARHDVAYCSSSNCAKWPEYFQHWGQGTLVTVSSGGGGSGGGGSGGGGSQSVLTQPPSVSAAPGQKVTISCSGSSSNIGNNYVSWYQQLPGTAPKLLIYGHTNRPAGVPDRFSGSKSGTSASLAISGFRSEDEADYYCASWDYTLSGWVFGGGTKLTVLGYMASGAEFGSGGQKQAEEAAAKAAADAKAKAEADAKAAEEAAKKAAADAKKKAEA
As for B2, the values for the koff in [2], in experiment [8] and in experiment [9] were 0.000567 s⁻¹, 0.0134 s⁻¹ and 7.03e-05 s⁻¹, respectively. Also, the Kd was 887 nM in experiment [3], 886 nM in experiment [4], 16.2 nM in [5] and 24 nM in experiment [7]. The molecule further returned a fluorescent intensity at the 5-minute wash step in experiment [6] of 190.
